Measurements published in the supplement of paper PMC9170038.

Experiments:
MS2 coat protein [1] = assay: apparent KD of MS2 coat protein, switch ON state; designed switch direction (-1 OFF switch, 1 ON switch): -1; higher = weaker reporter binding; conditions: FMN input: 0 or 200 uM; Eterna round: R93 (includes R88 designs)
Method in brief: (§1)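 On-chip transcription from Illumina sequencing clusters produced the designed RNA switches. These were titrated with SNAP-549-labelled MS2 coat protein (twofold steps, 0.7 or 1.5 nM to 3 µM) in 100 mM Tris-HCl pH 7.5, 80 mM KCl, 4 mM MgCl2, with or without constant ligand. The apparent KD given is the per-design median of normalised cluster binding-curve fits.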

MS2 coat protein [2] = assay: apparent KD of MS2 coat protein, switch OFF state (with FMN for OFF switches, without FMN for ON switches); designed switch direction (-1 OFF switch, 1 ON switch): -1; higher = weaker reporter binding; conditions: FMN input: 0 or 200 uM; Eterna round: R93 (includes R88 designs)
Method in brief: as §1

Row | Sequence | apparent KD of MS2 coat protein (MS2 coat protein [1]) [nM] | apparent KD of MS2 coat protein (MS2 coat protein [2]) [nM]
1 | GGGUCACAUGAGGAUCACCCAUGUAAGGAUAUGCUAGGGAUGGAAGCCAGGCCGCAACGCAGAAGGUACUAAAG [Janelle Amethyst 18 Mod 14 - Jieux - Exclusion 1] | 55.1 | 54.7
2 | AAGAAGAAAGGAUAUACAAGGAAGAAAGAAAAGAAAAGAAAACAUGAGGAUCACCCAUGUAGAAGGUUCUAGAA [EteRNA is fun!] | 15.2 | 9.5
3 | AGCAGUACAGGAUAUACAUGAGGAUCACCCAUGUGAAAAAAAAGUGGCGUACCACAAAGUAGAAGGGUACUGCA [Mat - Exclusion 3 - JL mod - D32] | 35.4 | 108
4 | AAGGUACGAGGAUAUACAUAGAUACAGACACAUGUACAUGUACAUGAGGAUCACCCAUGUAGAAGGCGUAUAUG [Mat - Same state - Mayanna Mod - D109] | 67.5 | 73.9
5 | CAAAAGGAAGGAUAUACAUAAUAAAACGGGCGGGCACCUUGACAUGAGGAUCACCCAUGUAGAAGGUCCAAUAA [Ramaanan] | 16.9 | 18.1
6 | AAAAAGUGAGGAUAUACGAUGUGGAGUAGACACAACCAGACGUAGAAGGCACAUGAGGAUCACCCAUGUCCAAA [EX4 Malc#17] | 21 | 28.6
7 | AUAAAGCGAGGAUAUACAUGAGGAUCACCCAUGUAAAUAAAUAGGAGAGCCACAAUAAGUAGAAGGUGCAAUAA [JR_Exc003_Sub008] | 54.8 | 46.5
8 | AACAGUACAGGAUAUACAUGAGGAUCACCCAUGUGAAAAUUAAGUGGAGAACCACAGUGUAGAAGGGUACUGGA [Mat - Exclusion 3 - Eli mod - D52] | 142 | 49.8
9 | CAAAACAAAGGAUAUAAAACAGAGGAUAUACAUAAAUAAAAACAUGAGGAUCACCCAUGUAGAAGGCUGAAAAC [Meechl Ex2 R2 m3] | 21.9 | 23
10 | AAAAAGCGAGGAUAUACAUGAGGAUCACCCAUGUCAAAAAAAUAGAAAAAAAUAAAAAGUAGAAGGCGCAAAAA [Ex 3 #1] | 75.8 | 63.6
11 | AUAAAACAUGAGGAUCACCCAUGUAAGGAUAUGCGAAAAUAAAAUAAAAUAAAAUAAAGCAGAAGGUACAAAAA [Insulation 1] | 29.1 | 37.3
12 | AAUAAGUCAGGAUAUGCAAAUAAUAAAUAAAAUAAAAUAAAGCAGAAGGGACAUGAGGAUCACCCAUGUAAAUA [Opal 40] | 47.9 | 41
13 | AAAUGUCUAGGAUAUACAUGAGGAUCACCCAUGUGUAAAAAUAAAUACACAAAAGAAAGUAGAAGGAGACAAAG [Mat - Exclusion 3 - Mayanna mod - D121] | 21.6 | 59.9
14 | AUCAUGUCAGGAUAUCGUGCAGCUACCGAAAGGUAGCUGCACGAGAAGGGACAUGAGGAUCACCCAUGUAUGAA | 27.7 | 24.3
15 | AAAAAUGGAGGAUAUACAUGAGGAUCACCCAUGUGAAACAAAACAAAAAACAAAAAAAGUAGAAGGCCAAAAAA [Gilly Gone Silly 3 - Jieux - Exclusion 3] | 31.2 | 40.1
16 | GUGUACAGAGGAUAUACUGGAGCAUGGAAACAUGCAAGAUCACAUGAGGAUCACCCAUGUAGAAGGCUGUACAC [Ex2: 742] | 119 | 21.8
17 | GAAACACAUGAGGAUCACCCAUGUCAGGAUAUUCAAACAAAAACAAAACAAAACAAACGAAGAAGGGACAAAAG [Mat - Same state - Mayanna Mod - D102] | 27 | 32.6
18 | AAAAAGUGAGGAUAUACGUUGAAAAAAAAAAAAAAAAAGCGGUAGAAGGCACAUGAGGAUCACCCAUGUAAAAA [Ex4 Malc#4] | 32.7 | 22.5
19 | AAGAAACAUGAGGAUCACCCAUGUGAGGAUAUCUAAAAGAAAAGAAAAGAAAGAAGAAAGAGAAGGCACAAAGG [Setut] | 34.7 | 64.1
20 | CUCAAGUAAGGAUAUGCAAGAAAAGAAAAGAAAGAAAAGAAGCAGAAGGUACAUGAGGAUCACCCAUGUAAGAA [EteRNA is fun!] | 25.4 | 42.3
21 | CAGUACUGAGGAUAUACAUGAGGAUCACCCAUGUGGGAAAGCUACGAAAGUAGCAAAUGUAGAAGGCAGUACUG [Ex3: 805] | 153 | 98.7
22 | AAAAUACAUGAGGAUCACCCAUGUGAGGAUAUGAGAAAGCAAAUAAAAUAAAGCAAACUCAGAAGGCACAAAAA [EX 1 May 25] | 39.5 | 50.2
23 | AGAAAGUCAGGAUAUGCGAAGGCGUCUGAUAGACGAGGCUAGCAGAAGGGACAUGAGGAUCACCCAUGUGAAAA [Mat - Exclusion 4 - Eli mod - D86] | 48.4 | 133

Row | Sequence | apparent KD of MS2 coat protein (MS2 coat protein [1]) [nM] | apparent KD of MS2 coat protein (MS2 coat protein [2]) [nM]
24 | AAUAACCGAGGAUAUACAAAACUUGUGAUCUAGUGGAUUUUACAUGAGGAUCACCCAUGUAGAAGGCGGAAAAG [Veenquge] | 61.3 | 212
25 | ACCUCACAUGAGGAUCACCCAUGUUAGGAUAUGCCCGGCAGGUUCUGACCUGCCUAAAGCAGAAGGAACGUGCG [Beusus] | 17.4 | 57.9
26 | AAGUACGAAGGAUAUACAUGGAUAUACAUUCAUGUGGACCUACAUGAGGAUCACCCAUGUAGAAGGUCGUAAUA [Mat - Same state - Mayanna Mod - D145] | 24.6 | 12.8
27 | AAAGUGUCAGGAUAUGCGAAGGCAUCUGACAGAUGAGGAUCGCAGAAGGGACAUGAGGAUCACCCAUGUAAAAA | 65.6 | 117
28 | AAAAACCUAGGAUAUACAUGAGGAUCACCCAUGUAAAGAAACAACAAGGGAAACACACGUAGAAGGAGGAAGAA [JR_Exc003_Sub1204] | 24.5 | 74.8
29 | AGGAUGUCAGGAUAUGUGUAAAGAAUAAAACAAAUAACAACACAGAAGGGACAUGAGGAUCACCCAUGUUAAAA [May 36] | 44.9 | 54
30 | AAAAAGGCAGGAUAUACAUGAGGAUCACCCAUGUAGUUGACAAAAAAGAGUCAACAGUGUAGAAGGGCCAAAAA [Exclusion3-cac1] | 18.1 | 22.1
31 | ACGAAACAUGAGGAUCACCCAUGUCAGGAUAUGAACGAAAAUAAAUAAAAAUAAAAGUUCAGAAGGGACGACGA [66%, Wbt, 24] | 39.5 | 53
32 | AGAAAACAUGAGGAUCACCCAUGUAAGGAUAUGCUAAGGGUGGCUUCGGCCACCCAAUGCAGAAGGUACAAAUA [Excalibur] | 20.5 | 40.7
33 | GAAGAACAUGAGGAUCACCCAUGUGAGGAUAUACAGAAGGGAAUAAAAUAACCUGAAAGUAGAAGGCACAAGAA [Ex 1 May 41] | 45.7 | 65.8
34 | AACAGUACAGGAUAUACAUGAGGAUCACCCAUGUGAAGAAUAAGUGGAGUACCACAAAGUAGAAGGGUACUGGA [Ruby 88] | 31.8 | 104
35 | UCCGAACAUGAGGAUCACCCAUGUCAGGAUAUACACCCAGCAUGGAAGCCAUGCUCAAGUAGAAGGGACGGGUG [Inxeus] | 34.9 | 34.9
36 | CUCAUGUGAGGAUAUCAGUAGUAAAAAAAAAAAAUUACUACUGAGAAGGCACAUGAGGAUCACCCAUGUACCUU [EX4 326: Super Stable 26] | 37.7 | 42.6
37 | AUCGUUGGAGGAUAUGCUUGGAAAAAAAAAAAAAAAAAAAAACAUGAGGAUCACCCAUGUAGAAGGUCAAUGGA [Banishment 6 - Jieux - Exclusion 2] | 49.9 | 30.5
38 | AACUGACAUGAGGAUCACCCAUGUCAGGAUAUGCAUCUUAGGAAAAAAAAACUAAGAUGCAGAAGGGACAUGGA [Design 4: Super Stable 4] | 23.9 | 46.2
39 | AAAAAACAUGAGGAUCACCCAUGUAAGGAUAUGCUCGUGCGAAAGCACAAAAAAAAGAGCAGAAGGUACAAAAA [66%, Wbt, 38] | 19.8 | 32.3
40 | AACAGUACAGGAUAUACAUGAGGAUCACCCAUGUGAAAUAAAAGUGGCGUACCACAAAGUAGAAGGGUACUGGA [Mat - Exclusion 3 - JL mod - D22] | 27.3 | 119
41 | AACUGACAUGAGGAUCACCCAUGUCAGGAUAUGCUUCAUAAAAUAAAAAUAAAAUGAUGCAGAAGGGACAUGAA [Design 27 :P Sub-opt 3] | 15.4 | 13.5
42 | GAGAGGGCAGGAUAUGCGGAGAGAGAGAGAGAGAGAGAGAGACAUGAGGAUCACCCAUGUAGAAGGGCCGAGAG [salish99-ex2-09] | 62.3 | 28.1
43 | GGAAAACAUGAGGAUCACCCAUGUAAGGAUAUGCAAAAAAAAGGAUAUAGAAGGAAAAGCAGAAGGUACAAAGG [salish99-ex1-26] | 30.8 | 38.2
44 | AAAUGACAUGAGGAUCACCCAUGUCAGGAUAUGACUUGAAAAAUAAAAUAAAAACAUGUCAGAAGGGACAUGAA [Design 47: Sub-opt E] | 16.5 | 17.6
45 | GGAAAACAUGAGGAUCACCCAUGUGAGGAUAUCGAUGUCCAAAAGAAAGUGCGGGACUCGAGAAGGCACUUGGA [salish99-ex1-36] | 56.3 | 45.8
